Data from patent US20230121197A1, “ANTIBODIES SPECIFICALLY BINDING THE CARBOXYMETHYLATED CATALYTIC SUBUNIT OF PROTEIN PHOSPHATASE 2A” (Medizinische Universität Wien, priority 2020, published 2023).

Tests used:
[1] = biological target: T1, C-terminal PP2Ac peptide Y307F, CGEPHVTRRTPDFFL (15-mer); test: Western blot of 100 ng BSA crosslinked with peptide
T1 construct: Non-carboxymethylated; Phe in place of Tyr307; Crosslinked to BSA in the Western blot; free or linked to BSA in the ELISA
T1 peptide: CGEPHVTRRTPDFFL
Procedure: 100 ng of BSA crosslinked with peptides (L309: […] (SEQ ID NO:49), Y307F: […] (SEQ ID NO.50), pY307: […]pYFL (SEQ ID NO:51) or meL309: […]-CH₃) (SEQ ID NO:49) was separated by 10% SDS-PAGE and transferred to nitrocellulose membrane (0.2 μm, GE Healthcare). […] The membranes were blocked in 3% non-fatty dry milk (NFDM) in TBS-Tween for 1 h at RT and incubated with single clone hybridoma cell culture supernatant, clone 7C10-C5 diluted 1:100 in 0.5% NFDM in TBS-T (7C10 X63), recombinant single chain variable fragment of antibody 7C10-C5, undiluted (7C10 scFvs), recombinant bivalent single chain variable fragment 7C10-C5, undiluted (7C10 bi-scFvs) or single clone hybridoma cell culture supernatant, clone 1D7 (binding to non-carboxymethylated PP2Ac) 1:100 in 0.5% NFDM in TBS-T o/n at 4° C. After washing 3×5 min in TBS-T, blots incubated with recombinant antibodies were incubated with mouse anti-HA monoclonal antibody 16B12 (recognizing the hemagglutinin (HA) tag on the recombinant antibody), 1:10000 in 0.5% NFDM in TBS-T 2 h at room temperature. After washing 3×5 min in TBS-T, incubation with anti-mouse-HRP coupled secondary antibody for 1 h at RT and 3×10 min washes in TBS-T was performed. ECL was performed with GE Healthcare ECL reagents (RPN2106) mixed 1:3 with Clarity™ Western ECL Substrate, 500 ml #1705061 (Biorad). Signals were detected by exposure of X-ray films. […]

[2] = biological target: T2, PP4c C-terminal peptide meL307, ac-PSKKPVADYFL-CH3 (α-carboxymethylated) (human, SMILES …); test: ELISA, peptide coated at 2 µg/ml, hybridoma supernatant 1:50, values normalized to meL309, N=7
T2 construct: also called mePP4c; PP4 Me
T2 peptide: Ac-PSKKPVADYFL-OMe
Excerpt: (§1) FIG. 9: Monoclonal antibody 7C10-C5 detects α-carboxymethylated PP2Ac C-terminal peptides with >10-fold higher signal intensity than the α-carboxymethylated PP4c and PP6c C-terminal peptides in ELISA. Nunc Medisorp 96-well ELISA flat-bottom plates were coated with PP2Ac peptides L309 (ac-[…]) (SEQ ID NO:18), meL309 (ac-[…]-CH3) (SEQ ID NO:18), PP4c peptides L307 (ac-[…]) (SEQ ID NO:20), meL307 (ac-[…]-CH₃) (SEQ ID NO:20), PP6c peptides L305 (ac-[…]) (SEQ ID NO:22) or meL305 (ac-[…]-CH₃) (SEQ ID NO:22) at 2 μg/ml in TBS or TBS only (Neg) at 4° C. over-night. After washing once with TBS, the wells were incubated with 2% BSA in TBS for 1 h at RT. After washing once with TBS, the wells were incubated with single clone hybridoma cell culture supernatant, clone 7C10-C5 1:50 for 1 h at RT. After washing twice with TBS, wells were incubated with anti-mouse and anti rabbit HRP-coupled secondary antibody for 1 h at RT, followed by washing 3× in PBS. Bound antibodies were detected by colorimetric reaction with 3,3′,5,5′-Tetramethylbenzidine as substrate, and absorbance was measured at 450 nm. Values were normalized to meL309 which was set to 1. Average and standard deviation of N=7 experiments are shown. […] Statistical significance was assessed using ANOVA followed by Tukey's HSD as a post-hoc test. […]

[3] = biological target: T3, PP6c C-terminal peptide meL305, ac-IPPRTTTPYFL-CH3 (α-carboxymethylated) (human, SMILES …); test: as above
T3 construct: also called PP6 meLeu305
T3 peptide: Ac-IPPRTTTPYFL-OMe
Excerpt: as §1

B1: 7C10-C5 monoclonal antibody (antibody, V domains shown)
VH: DVQLQESGPGLVKPSQSLSLTCSVTGYSITSGYYWNWIRQFPGNKLEWMGYISYDGSNNYNPSLKNRISITRDTSKNQFFLKLNSVTTEDTATYYCAGRFAYWGQGTLVTVSA
VL: DVLMTQTPLSLPVSLGDQASISCRSSQSIVHSNGNTYLEWYLQKPGQSPKLLIYKVSNRFSGVPDRFSGSGSGTDFTLKINRVEAEDLGVYYCFQGSHVPWTFGGGTKLEIK
notes: Used as hybridoma culture supernatant (ELISA, Western blot, IHC) or at 50 µg/mL (SPR); also called 7C10 X63; clone 7C10-C5
binding result [1]: no binding (tested: supernatant 1:100)
fold-change of ELISA signal, meL309 (PP2A) over meL307 (PP4) [2]: 10.1 fold
fold-change of ELISA signal, meL309 (PP2A) over meL305 (PP6) [3]: 16.2 fold
